In US20180112001A1 (Regeneron, published 2018):
Numbering of substitutions follows the chain as printed. Names may count otherwise.

B1: H1M9528N (antibody, mouse IgG1, V domains shown)
VH: QMQLQESGPGLVKPSETLSLTCTVSGGSISSYYWNWIRQPPGKGLEWIGYIYYSGNNFNPSLKSRVTISVDTSKNQFSLKLSSVTAADTAVYYCARAFHWNYEFDYWGQGTLVTVSS
VL: EIVLTQSPGTLSLSPGERATLSCRASQSVSNNYLAWYQQKPGQAPRLLLYGASSRTTDIPDRFSGSGSGTDFTLTISRLEPEDFAVYYCQQYDNSPLTFGGGTKVEIR
notes: Mouse IgG1 constant region (H1M)
B2: H2M7135N (antibody, mouse IgG2, V domains shown)
VH: EVQLVESGGGLVQAGGSLRLSCAASGFTFSYHEMNWVRQAPGKGLEWVSYIGSRGTTKHYADPVKGRFTISRDNAKNSLYLQMNSLRAEDTAVYYCASEVGSILGYSMDVWGQGTTVTVSS
VL: DIQMTQSPSSLSASVGDRVTITCRASQSVSRYLNWCQQKPGKAPKLLTYAASSLQSGVPSRFSGSGSGTDFTLTISSLQPEDFAAYFCQQSYSTPPITFGQGTRLEIK
notes: Mouse IgG2 constant region (H2M)
B3: H3M9524N (antibody, mouse IgG3, V domains shown)
VH: QVQLQQWGAGLLKPSETLSLTCAVYGGSFSDYYWSWIRQPPGKGLEWIGEINHRGKTNYNPSLKSRVSISVDPSKNQFSLKLSSVTAADTAVYYCARQGWNYAIFDYWGQGILVPVSS
VL: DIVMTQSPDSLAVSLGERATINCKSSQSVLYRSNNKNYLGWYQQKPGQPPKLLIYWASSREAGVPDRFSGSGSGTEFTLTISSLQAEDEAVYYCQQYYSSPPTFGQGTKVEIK
notes: Mouse IgG3 constant region (H3M)
B4: H3M9525N (antibody, mouse IgG3, V domains shown)
VH: B3 VH with D31G, R54S, N58T, N60S, S68T, P73T, N76S, W100L, I112T, P115T
VL: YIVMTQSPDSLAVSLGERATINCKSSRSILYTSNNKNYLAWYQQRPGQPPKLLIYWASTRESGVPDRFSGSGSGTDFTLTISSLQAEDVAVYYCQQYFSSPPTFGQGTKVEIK
notes: as for B3
B5: H1M7137N (antibody, mouse IgG1, V domains shown)
VH: QVQLQESGPGLVKPSETLSLTCTVSGGAINTYYWSWIRQPPGKGLEWIGYIYYRGNTNYNPSLRSRVTISVDTSKNQFFLKLRSVTVADSAVYFCARGWNYRAEYFQHWGQGTVVTVSS
VL: not shown
notes: as for B1
B6: H3M9529N (antibody, mouse IgG3, V domains shown)
VH: QVQLQQWGAGLLKPSETLSLTCAVYGGSFSGFYWSWIRQPPGKGLEWIGEINHSGSAKYNPSLKNRVIISIDTSKNQFSLKLDSVTAADTAVYNCARQGWNFAIFDYWGQGTLVDVSS
VL: DIVMTQSPDSLAVSLGGRATINCKSSQSVLHSSYNKDHLAWYQQRPGQPPKLLIYWASTRESGVPDRFSGSGSGTDFTLTISSLQAEDVAVYYCQQYNILPPTFGQGTRVEIK
notes: as for B3
B7: H1H8770P (antibody, human IgG1, V domains shown)
VH: QVQLVESGGGVVQPGRSLRLSCAASGFTFSDHGMHWVRQAPGKGLEWVAVISYHGSNKHYADSVKGRFTISRDNSKNALYLQMNSLRPEDTAMYYCAKDGYDFWNGYSLFDYWGQGTLVTVSS
VL: B2 VL with V29I, R31N, C36Y, T48I, A50T, S53N, Q55L, A85T, F87Y, R104K
notes: Human IgG1 (H1H)
B8: H1H8783P (antibody, human IgG1, V domains shown)
VH: B7 VH with G33A, S56T, N57D, H59Q, A61G, G106A
VL: B2 VL with V29I, R31N, C36Y, T48I, A50T, Q55L, A85T, F87Y
notes: Human IgG1 (H1H)
B9: H1H8790P (antibody, human IgG1, V domains shown)
VH: EVQLVESGGGLVQPGGSLRLSCEASGFTFSNYAMSWVRQAPGKGLEWVSGMSGSGTYPYYADSVKGRFTISRDNSKNMLYLQMNSLRVKDTAVYYCAKDGVDTAMILDTFDLWGQGTMVTVSS
VL: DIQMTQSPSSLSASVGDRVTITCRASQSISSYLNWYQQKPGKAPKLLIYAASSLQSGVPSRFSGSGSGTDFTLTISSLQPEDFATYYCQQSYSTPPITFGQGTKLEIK
notes: Human IgG1 (H1H)
B10: H1H8755P (antibody, human IgG1, V domains shown)
VH: EVQLVESGGGLVQPGRSLRLSCAASGFTFNDYAMHWVRQSPGKGLEWVSGIDWNGGSIDYADSVKGRFTISRDTAKNSLYLQMNSLKVEDTALYYCAKDIGHWNYIGGMDVWGQGTTVTVSS
VL: DIQMTQSPSSLSASVGDRVTITCRASQSINIYLNWYQQKPGKAPKFLIYAASSLQTGVPSRFSGSGSGTDFTLTISSLEPEDFATYYCQHSYSTPPITFGQGTRLEIK
notes: Human IgG1 (H1H)
B11: H1H8794P (antibody, V domains shown)
VH: QVQLVESGGGLVKPGGSLRLSCAASGFTFRDYSMSWIRQAPGKGLEWVSYVTFFNSAIYYADSVKGRFTISRDNAKNSLYLQMNSLRAEDTAVYYCAREREPIVGGFDYWGQGTLVTVSS
VL: B10 VL with I31S, F46L, T56G, S65G, S76T, E79Q, Y86F, H90Q, T94S
notes: Human IgG1 (H1H)
B12: H1H9528N (antibody, human IgG1, V domains shown)
VH: B1 VH
VL: B1 VL
notes: Human IgG1 Fc version
B13: H2M9538N (antibody, V domains shown)
VH: QVQLQESGPGLVKPSETLSLTCTVSGGSISSYYWSWIRQPPGKGLEWIGYIYYSGSTNYNPSLKSRVTISVDTSKNQFSLKLSSVTAADTAVYYCARKKLVFDYWGQGTLVTVSS
VL: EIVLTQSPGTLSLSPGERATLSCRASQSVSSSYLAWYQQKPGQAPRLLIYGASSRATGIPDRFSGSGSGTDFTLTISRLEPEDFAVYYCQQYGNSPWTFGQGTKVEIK
B14: H1H9538N (antibody, V domains shown)
VH: B13 VH
VL: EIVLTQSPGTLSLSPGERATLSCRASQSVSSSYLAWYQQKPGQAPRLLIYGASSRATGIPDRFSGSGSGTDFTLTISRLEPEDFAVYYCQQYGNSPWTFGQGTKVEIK
B15: H1H9525N (antibody, human IgG1, V domains shown)
VH: B3 VH with D31G, R54S, N58T, N60S, S68T, P73T, N76S, W100L, I112T, P115T
VL: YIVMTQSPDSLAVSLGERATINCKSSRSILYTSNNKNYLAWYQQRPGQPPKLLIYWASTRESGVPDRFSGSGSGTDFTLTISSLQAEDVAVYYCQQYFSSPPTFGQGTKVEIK
notes: Human IgG1 Fc version
B16: H1H9524N (antibody, human IgG1, V domains shown)
VH: B3 VH
VL: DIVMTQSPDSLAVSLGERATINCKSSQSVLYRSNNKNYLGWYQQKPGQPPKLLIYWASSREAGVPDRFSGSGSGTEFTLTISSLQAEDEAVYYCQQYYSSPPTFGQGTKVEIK
notes: Human IgG1 Fc version
B17: H1H9529N (antibody, human IgG1, V domains shown)
VH: B6 VH
VL: B6 VL
notes: Human IgG1 Fc version

Target: T1, soluble monomeric human MUC16, truncated format encompassing the last five SEA domains of Mucin-16 (human)
T1 construct: also called hMUC16.mmh; MUC16 "nub"
T1 chain: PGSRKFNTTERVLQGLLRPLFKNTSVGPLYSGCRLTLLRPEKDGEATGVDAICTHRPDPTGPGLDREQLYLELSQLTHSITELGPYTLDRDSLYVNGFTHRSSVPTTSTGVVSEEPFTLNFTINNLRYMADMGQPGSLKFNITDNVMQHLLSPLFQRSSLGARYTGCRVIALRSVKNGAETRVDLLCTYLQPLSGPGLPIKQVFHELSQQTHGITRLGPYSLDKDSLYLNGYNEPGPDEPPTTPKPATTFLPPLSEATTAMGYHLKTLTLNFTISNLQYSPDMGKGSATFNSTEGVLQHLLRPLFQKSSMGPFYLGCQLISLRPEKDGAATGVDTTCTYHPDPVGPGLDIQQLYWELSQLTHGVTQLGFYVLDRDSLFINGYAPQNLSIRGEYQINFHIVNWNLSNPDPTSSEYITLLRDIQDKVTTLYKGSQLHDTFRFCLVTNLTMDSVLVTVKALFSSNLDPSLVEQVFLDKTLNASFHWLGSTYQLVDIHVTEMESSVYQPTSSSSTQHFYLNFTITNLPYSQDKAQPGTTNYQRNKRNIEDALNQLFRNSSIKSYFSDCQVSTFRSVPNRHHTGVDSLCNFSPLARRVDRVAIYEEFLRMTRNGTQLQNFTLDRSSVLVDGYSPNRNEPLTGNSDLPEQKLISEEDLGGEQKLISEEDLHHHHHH
Assay: SPR Biacore, antibody captured, soluble monomeric hMUC16.mmh injected, 25C

Row | binding result | Kd [nM] | koff [s⁻¹] | kon [M⁻¹ s⁻¹] | t ½ [min] | Binder
1 | no binding | – | – | – | – | B1
2 | – | 4.27 | 0.000218 | 51000 | 53 | B2
3 | no binding | – | – | – | – | B3
4 | no binding | – | – | – | – | B4
5 | – | 1.72 | 9.09e-05 | 53000 | 127 | B5
6 | no binding | – | – | – | – | B6

Target: T1, soluble monomeric human MUC16, …
Assay: as above
Remark: another data set of the same source

Row | Kd [nM] | koff [s⁻¹] | kon [M⁻¹ s⁻¹] | t1/2 [min] | Binder
7 | 1.25 | 0.000308 | 247000 | 38 | B7
8 | 0.614 | 0.000107 | 174000 | 108 | B8
9 | 7.53 | 0.000761 | 101000 | 15 | B9
10 | 0.286 | 0.000149 | 522000 | 77 | B10
11 | 0.771 | 0.000279 | 362000 | 41 | B11

Target: T2, human MUC16 (mucin 16), endogenously expressed on cells (human)
T2 construct: Endogenous MUC16 on OVCAR-3 / OVCAR3-Luc / PEO-1 / HPAC cells; also called hMUC16
Assay: MSD electrochemiluminescence cell binding; RLU ratio OVCAR-3/SK-OV-3; Ab 1.9 nM

Row | Ratio: anti-MUC16 Binding OVCAR-3/SK-OV-3 [ratio] | Binder
12 | 153 | B1
13 | 41 | B12
14 | 89 | B13
15 | 12 | B14
16 | 30 | B2
17 | 9 | B7
18 | 11 | B8
19 | 81 | B3
20 | 4 | B15
21 | 20 | B16
22 | 137 | B4
23 | 77 | B5
24 | 8 | B9
25 | 143 | B6
26 | 109 | B17
27 | 13 | B10
28 | 8 | B11

Target: T2, human MUC16 (mucin 16), endogenously …
Assay: MSD electrochemiluminescence cell binding; RLU ratio OVCAR-3/SK-OV-3; Ab 16.7 nM

Row | Ratio: anti-MUC16 Binding OVCAR-3/SK-OV-3 [ratio] | Binder
29 | 120 | B1
30 | 18 | B12
31 | 26 | B13
32 | 13 | B14
33 | 5 | B2
34 | 3 | B7
35 | 4 | B8
36 | 57 | B3
37 | 21 | B15
38 | 48 | B16
39 | 51 | B4
40 | 29 | B5
41 | 3 | B9
42 | 99 | B6
43 | 74 | B17
44 | 5 | B10
45 | 3 | B11
